Experimental findings from patent publication US20220017591A1 (AstraZeneca / MedImmune, published 2022) are described below.

Changes are numbered by the printed parent chain.

T1: mouse RXFP1 (mouse, UniProt Q6R6I7 1-758)
T1 sequence (looked up): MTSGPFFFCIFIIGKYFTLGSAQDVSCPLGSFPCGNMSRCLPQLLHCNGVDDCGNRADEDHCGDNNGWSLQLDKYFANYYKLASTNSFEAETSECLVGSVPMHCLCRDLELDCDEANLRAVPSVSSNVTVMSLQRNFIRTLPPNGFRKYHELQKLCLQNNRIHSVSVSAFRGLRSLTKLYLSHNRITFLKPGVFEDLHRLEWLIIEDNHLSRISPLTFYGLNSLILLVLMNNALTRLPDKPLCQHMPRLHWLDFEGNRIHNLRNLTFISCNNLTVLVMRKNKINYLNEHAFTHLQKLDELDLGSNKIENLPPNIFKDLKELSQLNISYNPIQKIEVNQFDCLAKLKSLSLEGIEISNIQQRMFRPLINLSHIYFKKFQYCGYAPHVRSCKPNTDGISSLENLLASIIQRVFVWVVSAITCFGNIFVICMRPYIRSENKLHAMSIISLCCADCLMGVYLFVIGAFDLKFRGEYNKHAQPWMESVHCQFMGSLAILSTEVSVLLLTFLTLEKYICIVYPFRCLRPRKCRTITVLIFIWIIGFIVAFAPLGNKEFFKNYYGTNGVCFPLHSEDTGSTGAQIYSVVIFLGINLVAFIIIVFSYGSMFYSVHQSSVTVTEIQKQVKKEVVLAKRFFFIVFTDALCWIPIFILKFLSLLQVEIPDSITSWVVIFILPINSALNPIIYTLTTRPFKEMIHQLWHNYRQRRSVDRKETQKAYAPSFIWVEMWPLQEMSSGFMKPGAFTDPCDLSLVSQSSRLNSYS

T2: human RXFP1 (human, UniProt Q9HBX9 1-757)
T2 sequence (looked up): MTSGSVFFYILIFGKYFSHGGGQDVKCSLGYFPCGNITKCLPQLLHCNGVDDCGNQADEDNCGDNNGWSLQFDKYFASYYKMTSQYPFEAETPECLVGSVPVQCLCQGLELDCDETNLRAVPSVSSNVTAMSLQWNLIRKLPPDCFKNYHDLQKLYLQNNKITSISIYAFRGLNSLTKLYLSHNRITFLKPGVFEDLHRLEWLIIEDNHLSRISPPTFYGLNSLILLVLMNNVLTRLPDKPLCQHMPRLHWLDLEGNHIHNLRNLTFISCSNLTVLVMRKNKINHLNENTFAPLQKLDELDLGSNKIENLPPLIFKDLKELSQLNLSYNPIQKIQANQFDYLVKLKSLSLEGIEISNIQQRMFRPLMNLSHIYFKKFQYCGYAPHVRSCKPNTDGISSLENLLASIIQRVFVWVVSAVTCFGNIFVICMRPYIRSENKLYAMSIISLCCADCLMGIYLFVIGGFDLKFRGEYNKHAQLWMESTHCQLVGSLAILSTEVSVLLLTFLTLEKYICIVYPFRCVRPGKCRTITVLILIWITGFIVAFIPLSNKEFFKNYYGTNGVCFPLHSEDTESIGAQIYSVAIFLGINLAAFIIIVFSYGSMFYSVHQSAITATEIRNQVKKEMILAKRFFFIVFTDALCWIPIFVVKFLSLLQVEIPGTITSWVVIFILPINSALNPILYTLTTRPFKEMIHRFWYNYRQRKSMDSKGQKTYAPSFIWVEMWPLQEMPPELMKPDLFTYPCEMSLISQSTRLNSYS

B1: RELAX0020 (Fc fusion)
chain 1: GGAGGACPPCPAPEFEGGPSVFLFPPKPKDTLMISRTPEVTCVVVDVSHEDPEVKFNWYVDGVEVHNAKTKPREEQYNSTYRVVSVLTVLHQDWLNGKEYKCKVSNKALPASIEKTISKAKGQPREPQVYTLPPCREEMTKNQVSLWCLVKGFYPSDIAVEWESNGQPENNYKTTPPVLDSDGSFFLYSKLTVDKSRWQQGNVFSCSVMHEALHNHYTQKSLSLSPGGGGGSGGGGSGGGGSGGGGGSSWMEEVIKLCGRELVRAQIAICGMSTWS
chain 2: GGAGGACPPCPAPEFEGGPSVFLFPPKPKDTLMISRTPEVTCVVVDVSHEDPEVKFNWYVDGVEVHNAKTKPREEQYNSTYRVVSVLTVLHQDWLNGKEYKCKVSNKALPASIEKTISKAKGQPREPQVCTLPPSREEMTKNQVSLSCAVKGFYPSDIAVEWESNGQPENNYKTTPPVLDSDGSFFLVSKLTVDKSRWQQGNVFSCSVMHEALHNHYTQKSLSLSPGGGGGSGGGGSGGGGSGGGGGSQLYSALANKCCHVGCTKRSLARFC
B2: RELAX0022 (Fc fusion)
chain 1: B1 chain 2 with C130Y
chain 2: B1 chain 1 with C135S
B3: RELAX0039 (Fc fusion)
chain 1: DKTHTACPPCPAPEFEGGPSVFLFPPKPKDTLMISRTPEVTCVVVDVSHEDPEVKFNWYVDGVEVHNAKTKPREEQYNSTYRVVSVLTVLHQDWLNGKEYKCKVSNKALPASIEKTISKAKGQPREPQVYTLPPCREEMTKNQVSLWCLVKGFYPSDIAVEWESNGQPENNYKTTPPVLDSDGSFFLYSKLTVDKSRWQQGNVFSCSVMHEALHNHYTQKSLSLSPGGGGGSGGGGSGGGGSGGGGGSQLYSALANMCCHVGCTKRSLARFC
chain 2: DKTHTCPPCPAPEFEGGPSVFLFPPKPKDTLMISRTPEVTCVVVDVSHEDPEVKFNWYVDGVEVHNAKTKPREEQYNSTYRVVSVLTVLHQDWLNGKEYKCKVSNKALPASIEKTISKAKGQPREPQVCTLPPSREEMTKNQVSLSCAVKGFYPSDIAVEWESNGQPENNYKTTPPVLDSDGSFFLVSKLTVDKSRWQQGNVFSCSVMHEALHNHYTQKSLSLSPGGGGGSGGGGSGGGGSGGGGGSSWMEEVIKLCGRELVRAQIAICGMSTWS
B4: RELAX0069 (Fc fusion)
chain 1: DKTHTCPPCPAPEFEGGPSVFLFPPKPKDTLMISRTPEVTCVVVDVSHEDPEVKFNWYVDGVEVHNAKTKPREEQYNSTYRVVSVLTVLHQDWLNGKEYKCKVSNKALPASIEKTISKAKGQPREPQVYTLPPCREEMTKNQVSLWCLVKGFYPSDIAVEWESNGQPENNYKTTPPVLDSDGSFFLYSKLTVDKSRWQQGNVFSCSVMHEALHNHYTQKSLSLSPGGGGGSGGGGSGGGGSGGGGGSQLYSALANKCCHVGCTKRSLAMFC
chain 2: B3 chain 2
B5: RELAX0073 (Fc fusion)
chain 1: B4 chain 1 with M269Y
chain 2: B3 chain 2
B6: RELAX0052 (Fc fusion)
chain 1: B3 chain 1 with M257K, R266E
chain 2: B3 chain 2
B7: RELAX0070 (Fc fusion)
chain 1: B4 chain 1 with M269I
chain 2: B3 chain 2
B8: RELAX0043 (Fc fusion)
chain 1: B3 chain 1 with M257E
chain 2: B3 chain 2
B9: RELAX0041 (Fc fusion)
chain 1: B3 chain 1 with M257H
chain 2: B3 chain 2
B10: RELAX0071 (Fc fusion)
chain 1: B4 chain 1 with M269Q
chain 2: B3 chain 2
B11: RELAX0053 (Fc fusion)
chain 1: B3 chain 1 with M257K, R266H
chain 2: B3 chain 2
B12: RELAX0040 (Fc fusion)
chain 1: B3 chain 1 with M257L
chain 2: B3 chain 2
B13: RELAX0063 (Fc fusion)
chain 1: B4 chain 1 with M269R, F270A
chain 2: B3 chain 2
B14: RELAX0072 (Fc fusion)
chain 1: B4 chain 1 with M269A
chain 2: B3 chain 2
B15: RELAX0075 (Fc fusion)
chain 1: B4 chain 1 with M269R, F270I
chain 2: B3 chain 2
B16: RELAX0074 (Fc fusion)
chain 1: B4 chain 1 with M269S
chain 2: B3 chain 2

For one test, the target named is T1, mouse RXFP1. Nature of the test: cell-based or functional assay.
As to B1, the “EC50 mRXFP1 (M), cAMP assay” value came out at 2.79e-11 M.

As for B2, the “EC50 mRXFP1 (M), cAMP assay” value was 3.28e-11 M.

The next test deals with T3, human RXFP2 (human, UniProt Q8WXD0 1-754). The test can be described thus: cell-based or functional assay.
T3 sequence (Q8WXD0 whole entry): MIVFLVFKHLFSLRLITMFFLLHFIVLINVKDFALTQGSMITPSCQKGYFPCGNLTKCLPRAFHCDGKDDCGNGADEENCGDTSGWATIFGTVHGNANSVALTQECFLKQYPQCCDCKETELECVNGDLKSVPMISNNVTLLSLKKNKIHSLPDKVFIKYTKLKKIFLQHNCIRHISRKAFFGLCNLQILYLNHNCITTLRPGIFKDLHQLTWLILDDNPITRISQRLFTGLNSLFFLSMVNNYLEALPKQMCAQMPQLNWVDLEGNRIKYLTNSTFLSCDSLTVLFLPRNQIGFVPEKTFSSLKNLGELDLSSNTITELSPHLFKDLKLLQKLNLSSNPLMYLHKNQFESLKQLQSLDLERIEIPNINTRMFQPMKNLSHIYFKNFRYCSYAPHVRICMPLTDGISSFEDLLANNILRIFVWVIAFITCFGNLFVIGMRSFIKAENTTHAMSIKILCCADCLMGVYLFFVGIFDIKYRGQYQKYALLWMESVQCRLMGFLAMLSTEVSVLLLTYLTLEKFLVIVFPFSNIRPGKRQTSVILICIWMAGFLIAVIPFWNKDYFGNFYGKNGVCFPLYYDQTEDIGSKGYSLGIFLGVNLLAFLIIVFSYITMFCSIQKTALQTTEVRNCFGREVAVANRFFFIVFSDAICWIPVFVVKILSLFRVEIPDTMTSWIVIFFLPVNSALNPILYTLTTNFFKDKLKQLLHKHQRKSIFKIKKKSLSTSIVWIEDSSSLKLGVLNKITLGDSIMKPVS
For B1, the “EC50 hRXFP2 (M), cAMP assay” value is 3.54e-08 M.

For the next test, the target named is T2, human RXFP1. Nature of the test: cell-based or functional assay.
For B1, the “EC50 hRXFP1 (M), cAMP assay” value amounted to 4.41e-11 M.

B2: the “EC50 hRXFP1 (M), cAMP assay” value worked out at 4.74e-11 M.

The target in the next test is T1, mouse RXFP1. The test can be described thus: cell-based or functional assay. The source holds these as a separate data set.
B3: the “EC50 mRXFP1 (M), cAMP assay” value was 4.25e-11 M.

As for B4, the “EC50 mRXFP1 (M), cAMP assay” value was determined as 3.69e-11 M.

As for B5, the “EC50 mRXFP1 (M), cAMP assay” value turned out to be 4.15e-11 M.

For the molecule B6, the “EC50 mRXFP1 (M), cAMP assay” value turned out to be 5.69e-11 M.

For B7, the “EC50 mRXFP1 (M), cAMP assay” value was determined as 5.02e-11 M.

Consider B8, for which the “EC50 mRXFP1 (M), cAMP assay” value came out at 5.58e-11 M.

For the molecule B9, the “EC50 mRXFP1 (M), cAMP assay” value was determined as 3.17e-11 M.

For B10, the “EC50 mRXFP1 (M), cAMP assay” value stood at 3.93e-11 M.

B11: the “EC50 mRXFP1 (M), cAMP assay” value worked out at 4.36e-11 M.

For B12, the “EC50 mRXFP1 (M), cAMP assay” value is 2.92e-11 M.

For B13, the “EC50 mRXFP1 (M), cAMP assay” value is 4.46e-11 M.

For B14, the “EC50 mRXFP1 (M), cAMP assay” value was found to be 4.03e-11 M.

In the case of B15, the “EC50 mRXFP1 (M), cAMP assay” value was 6.14e-11 M.

For B16, the “EC50 mRXFP1 (M), cAMP assay” value was determined as 4.53e-11 M.

In the next test the target is T3, human RXFP2. The test can be described thus: cell-based or functional assay. This is another data set of the same source.
For the molecule B3, the “EC50 hRXFP2 (M), cAMP assay” value is 1.08e-07 M.

For the molecule B4, the “EC50 hRXFP2 (M), cAMP assay” value is above 1.62e-07 M.

Take B5: the “EC50 hRXFP2 (M), cAMP assay” value was 8.63e-08 M.

For B6, the “EC50 hRXFP2 (M), cAMP assay” value was 1.05e-07 M.

Consider B7, for which the “EC50 hRXFP2 (M), cAMP assay” value was found to be 1.07e-07 M.

Consider B8, for which the “EC50 hRXFP2 (M), cAMP assay” value is above 1.58e-07 M.

For B9, the “EC50 hRXFP2 (M), cAMP assay” value is 1.18e-07 M.

In the case of B10, the “EC50 hRXFP2 (M), cAMP assay” value came to 1.15e-07 M.

Regarding B11, the “EC50 hRXFP2 (M), cAMP assay” value is above 1.79e-07 M.

For B12, the “EC50 hRXFP2 (M), cAMP assay” value is above 1.27e-07 M.

Take B13: the “EC50 hRXFP2 (M), cAMP assay” value was above 1.38e-07 M.

Turning to B14, the “EC50 hRXFP2 (M), cAMP assay” value is above 2.3e-07 M.

For B15, the “EC50 hRXFP2 (M), cAMP assay” value was above 1.43e-07 M.

With B16, the “EC50 hRXFP2 (M), cAMP assay” value is 9.21e-08 M.

A further test concerns the target T2, human RXFP1. Nature of the test: cell-based or functional assay. This is another data set of the same source.
B3: the “EC50 hRXFP1 (M), cAMP assay” value came to 6.54e-11 M.

Consider B4, for which the “EC50 hRXFP1 (M), cAMP assay” value is 5.76e-11 M.

As for B5, the “EC50 hRXFP1 (M), cAMP assay” value was found to be 5.7e-11 M.

As to B6, the “EC50 hRXFP1 (M), cAMP assay” value amounted to 9.67e-11 M.

In the case of B7, the “EC50 hRXFP1 (M), cAMP assay” value was found to be 6.67e-11 M.

Turning to B8, the “EC50 hRXFP1 (M), cAMP assay” value came to 7.98e-11 M.

For B9, the “EC50 hRXFP1 (M), cAMP assay” value came out at 6.22e-11 M.

Take B10: the “EC50 hRXFP1 (M), cAMP assay” value amounted to 6.87e-11 M.

In the case of B11, the “EC50 hRXFP1 (M), cAMP assay” value came to 7.15e-11 M.

For the molecule B12, the “EC50 hRXFP1 (M), cAMP assay” value came out at 5.92e-11 M.

As for B13, the “EC50 hRXFP1 (M), cAMP assay” value worked out at 1.96e-10 M.

As to B14, the “EC50 hRXFP1 (M), cAMP assay” value came to 8.53e-11 M.

Turning to B15, the “EC50 hRXFP1 (M), cAMP assay” value was found to be 9.47e-11 M.

For the molecule B16, the “EC50 hRXFP1 (M), cAMP assay” value is 5.45e-11 M.
